Article PMC4167974

Target: fluorescein-labeled BalhA1 leader peptide (Bacillus sp. Al Hakam)
Test: fluorescence polarisation

With MBP-BalhC (natural protein) the Kd was 11 µM.
